Assay results from the RNAGym collection of RNA variant scans (doi:10.1021/acssynbio.7b00057).

B1: Pistol ribozyme (parent)
chain: GGGUCGUUGUUCCAUAAUCGCGUGGAUAUGGCACGCAAGUUUCUACCGGGCACCGUAAAUGUCCGACUGGAGCCGUUCGGGCGGCUAUAAACAGACCUCAGGCCCGAAGCGUGGCGGCACCUGCCGCCGGUGGUAAAAAAGAUCGGAAGAGCACACGUCU

Variants of: B1
Assay: aptazyme ON/OFF ratio, guanine; higher = stronger switching; co-transcriptional cleavage with and without guanine

Row | Variant | aptazyme ON/OFF ratio
1 | U8G U10A U11C C12A | 1.18
2 | U8G U10A U11C C12G | 1.21
3 | U8G U10A U11C C12U | 1.03
4 | U8G U10C U11G C13U | 1.05
5 | U8G U10C U11G C13G | 1.07
6 | U8G U10C U11G C13A | 1.07
7 | U8G U11A C12A C13G | 1.14
8 | U8G U11A C12A C13A | 1.18
9 | U8G U11A C12A C13U | 1.28
10 | U8G U10A U11G C12G | 1.2
11 | U8G U10A U11G C12A | 1.12
12 | U8G U10A U11G C12U | 1.23
13 | U8G U10C C12U C13G | 1.07
14 | U8G U10C C12U C13U | 1.17
15 | U8G U10C C12U C13A | 1.05
16 | U8G U11A C12G C13U | 1.09
17 | U8G U11A C12G C13G | 1.09
18 | U8G U11A C12G C13A | 1.1
19 | U8G U10G U11C C12A C13A | 1.06
20 | U8G U10G U11C C12A C13U | 1.09
21 | U8G U10G U11C C12A C13G | 1.08
22 | U8G U10A U11G C13A | 1.08
23 | U8G U10A U11G C13G | 1.04
24 | U8G U10A U11G C13U | 1.04

Row | Variant | aptazyme ON/OFF ratio
25 | U8G U10G U11C C12U | 1.02
26 | U8G U10G U11C C12A | 1.06
27 | U8G U10G U11C C12G | 1.11
28 | U8G G9U U11G C12G C13A | 1.21
29 | U8G G9U U11G C12G C13G | 1.36
30 | U8G G9U U11G C12G C13U | 1.22
31 | U8G U10G U11G C13A | 1.21
32 | U8G U10G U11G C13U | 1.19
33 | U8G U10G U11G C13G | 1.25
34 | G9A U10A U11C C13A | 1.13
35 | U8G U10A C12G C13G | 1.14
36 | U8G U10A C12G C13U | 1.28
37 | U8G U10A C12G C13A | 1.16
38 | U8G U10A U11C C13U | 1.03
39 | U8G U10A U11C C13A | 1.03
40 | U8G U10A U11C C13G | 1.02
41 | U8G U11A C12A | 1.45
42 | U8G U11A C12G | 1.1
43 | U8G U11A C12U | 1.46
44 | U8G U11G C13A | 1.04
45 | U8G U11G C13U | 1.03
46 | U8G U11G C13G | 1.05
47 | U8G U10G U11A C12G C13G | 1.17
48 | U8G U10G U11A C12G C13A | 1.13

Row | Variant | aptazyme ON/OFF ratio
49 | U8G U10G U11A C12G C13U | 1.34
50 | U8G G9U U11G C12A | 1.32
51 | U8G G9U U11G C12U | 1.27
52 | U8G G9U U11G C12G | 1.39
53 | U8G U10G U11G C12G C13G | 1.1
54 | U8G U10G U11G C12G C13U | 1.29
55 | U8G U10G U11G C12G C13A | 1.15
56 | U8G G9U U11G C12U C13G | 1.1
57 | U8G G9U U11G C12U C13A | 1.13
58 | U8G G9U U11G C12U C13U | 1.16
59 | G9A C12G C13G | 1.46
60 | G9A C12G C13U | 1.44
61 | G9A C12G C13A | 1.3
62 | U8G U10A C12A C13G | 1.05
63 | U8G U10A C12A C13A | 1.26
64 | U8G U10A C12A C13U | 1.27
65 | U8G U10G C13G | 1.23
66 | U8G U10G C13A | 1.15
67 | U8G U10G C13U | 1.11
68 | U8G G9U U11C C12A C13G | 1.08
69 | U8G G9U U11C C12A C13U | 1.11
70 | U8G G9U U11C C12A C13A | 1.09
71 | U8G U10C C12G | 1.49
72 | U8G U10C C12A | 1.34

Row | Variant | aptazyme ON/OFF ratio
73 | U8G U10C C12U | 3.67
74 | U8G G9U U11C | 1.24
75 | U8G G9U U11G | 1.36
76 | U8G U10C U11C C12G C13U | 1.15
77 | U8G U10C U11C C12G C13A | 1.1
78 | U8G U10C U11C C12G C13G | 1.09
79 | U8G U11G C12A C13A | 1.13
80 | U8G U11G C12A C13G | 1.17
81 | U8G U11G C12A C13U | 1.21
82 | G9A U10A U11A C12U C13G | 1.3
83 | G9A U10A U11A C12U C13A | 1.3
84 | G9A U10A U11A C12U C13U | 1.57
85 | U8G U10A U11A C12A C13U | 1.13
86 | U8G U10A U11A C12A C13A | 1.19
87 | U8G U10A U11A C12A C13G | 1.11
88 | U8G U10G C12G C13U | 1.35
89 | U8G U10G C12G C13G | 1.14
90 | U8G U10G C12G C13A | 1.31
91 | U8G G9U U11C C13U | 1.08
92 | U8G G9U U11C C13G | 1.03
93 | U8G G9U U11C C13A | 1.1
94 | U8G U11C C12G C13A | 1.25
95 | U8G U11C C12G C13G | 1.3
96 | U8G U11C C12G C13U | 1.2

Row | Variant | aptazyme ON/OFF ratio
97 | U8G U10C U11C C13G | 1.03
98 | U8G U10C U11C C13A | 1.03
99 | U8G U10C U11C C13U | 1.04
100 | G9A U10A C12G C13G | 1.33
101 | G9A U10A C12G C13U | 1.57
102 | G9A U10A C12G C13A | 1.47
103 | U8G U10G U11C C12U C13A | 1.06
104 | U8G U10G U11C C12U C13U | 1.04
105 | U8G U10G U11C C12U C13G | 1.14
106 | U8G U10A U11G C12A C13U | 1.12
107 | U8G U10A U11G C12A C13G | 1.12
108 | U8G U10A U11G C12A C13A | 1.11
109 | U8G U10C U11A C12A C13U | 1.24
110 | U8G U10C U11A C12A C13G | 1.11
111 | U8G U10C U11A C12A C13A | 1.16
112 | U8G U10C U11A C13A | 1.15
113 | U8G U10C U11A C13G | 1.05
114 | U8G U10C U11A C13U | 1.22
115 | U8G U10C U11G C12A C13G | 1.13
116 | U8G U10C U11G C12A C13U | 1.2
117 | U8G U10C U11G C12A C13A | 1.16
118 | U8G U10A U11A C12U C13U | 1.14
119 | U8G U10A U11A C12U C13G | 1.17
120 | U8G U10A U11A C12U C13A | 1.3

Row | Variant | aptazyme ON/OFF ratio
121 | U8G U10A U11A C12A | 1.12
122 | U8G U10A U11A C12G | 1.14
123 | U8G U10A U11A C12U | 1.28
124 | U8G U10G U11A C12G | 1.28
125 | U8G U10G U11A C12U | 1.38
126 | U8G U10G U11A C12A | 1.18
127 | U8G U10A U11C C12A C13U | 1.14
128 | U8G U10A U11C C12A C13G | 1.12
129 | U8G U10A U11C C12A C13A | 1.13
130 | U8G U11G C12A | 1.44
131 | U8G U11G C12G | 1.18
132 | U8G U11G C12U | 1.33
133 | U8G U10G C12U C13G | 1.18
134 | U8G U10G C12U C13A | 1.3
135 | U8G U10G C12U C13U | 1.2
136 | U8G U10G U11G C12U | 1.44
137 | U8G U10G U11G C12G | 1.07
138 | U8G U10G U11G C12A | 1.09
139 | U8G U11C C12U C13A | 1.33
140 | U8G U11C C12U C13U | 1.3
141 | U8G U11C C12U C13G | 1.29
142 | G9A C12A | 1.92
143 | G9A C12G | 1.71
144 | G9A C12U | 1.78

Row | Variant | aptazyme ON/OFF ratio
145 | U8G U10A U11A C12G C13A | 1.12
146 | U8G U10A U11A C12G C13U | 1.07
147 | U8G U10A U11A C12G C13G | 1.21
148 | U8G U10G U11C C12G C13A | 1.11
149 | U8G U10G U11C C12G C13G | 1.1
150 | U8G U10G U11C C12G C13U | 1.13
151 | U8G U10C C13A | 1.05
152 | U8G U10C C13U | 1.15
153 | U8G U10C C13G | 1.04
154 | U8G G9U U11G C12A C13A | 1.14
155 | U8G G9U U11G C12A C13U | 1.21
156 | U8G G9U U11G C12A C13G | 1.19
157 | U8G U11C C13U | 1.37
158 | U8G U11C C13G | 1.17
159 | U8G U11C C13A | 1.19
160 | U8G U10A C13A | 1.14
161 | U8G U10A C13G | 1.12
162 | U8G U10A C13U | 1.19
163 | U8G G9U U11C C12G C13A | 1.04
164 | U8G G9U U11C C12G C13G | 1.06
165 | U8G G9U U11C C12G C13U | 1.13
166 | U8G U10C C12G C13U | 1.27
167 | U8G U10C C12G C13G | 1.14
